Measurements reported in PMC11783452 (iScience, 2024).

Target: prefusion-stabilized MERS-CoV spike protein, MERS S-2P (MERS-CoV, England1 (isolate United …, UniProt K9N5Q8, stabilised))
Assay: negative-stain EM

B1: Anti-MERS-CoV S antibody CDC2-A2, Fab (Fab, V domains shown)
VH: QVQLVESGGGLVKPGGSLRLSCAASGFTFSDYYMSWIRQAPGKGLEWVSYISSSGSTIYYADSVKGRFTISRDNAKNSLYLQMNSLRAEDTAVYYCARVGLGSGWYDWFDPWGQGTLVTVSS
VL: QSALTQPPSVSGAPGQRVTISCTGSSSNIGASYDVHWYQHLPGTAPKLLIYGNTNRPSGVPDRFSGSKSGTSASLAITGLQAEDEADYYCQSYDSSLSGVVFSGGTKLTVL
B1: binds.
